The results in this text go back to article PMC11929605 (Nature, 2024).

The term stoichiometry N denotes a count of units in the complex or per binding partner.

To fix the notation:
B1: human CaSR (residues 20-894), wild-type construct FLAG-CaSR (receptor, UniProt P41180 20-894, looked up)
chain: YGPDQRAQKKGDIILGGLFPIHFGVAAKDQDLKSRPESVECIRYNFRGFRWLQAMIFAIEEINSSPALLPNLTLGYRIFDTCNTVSKALEATLSFVAQNKIDSLNLDEFCNCSEHIPSTIAVVGATGSGVSTAVANLLGLFYIPQVSYASSSRLLSNKNQFKSFLRTIPNDEHQATAMADIIEYFRWNWVGTIAADDDYGRPGIEKFREEAEERDICIDFSELISQYSDEEEIQHVVEVIQNSTAKVIVVFSSGPDLEPLIKEIVRRNITGKIWLASEAWASSSLIAMPQYFHVVGGTIGFALKAGQIPGFREFLKKVHPRKSVHNGFAKEFWEETFNCHLQEGAKGPLPVDTFLRGHEESGDRFSNSSTAFRPLCTGDENISSVETPYIDYTHLRISYNVYLAVYSIAHALQDIYTCLPGRGLFTNGSCADIKKVEAWQVLKHLRHLNFTNNMGEQVTFDECGDLVGNYSIINWHLSPEDGSIVFKEVGYYNVYAKKGERLFINEEKILWSGFSREVPFSNCSRDCLAGTRKGIIEGEPTCCFECVECPDGEYSDETDASACNKCPDDFWSNENHTSCIAKEIEFLSWTEPFGIALTLFAVLGIFLTAFVLGVFIKFRNTPIVKATNRELSYLLLFSLLCCFSSSLFFIGEPQDWTCRLRQPAFGISFVLCISCILVKTNRVLLVFEAKIPTSFHRKWWGLNLQFLLVFLCTFMQIVICVIWLYTAPPSSYRNQELEDEIIFITCHEGSLMALGFLIGYTCLLAAICFFFAFKSRKLPENFNEAKFITFSMLIFFIVWISFIPAYASTYGKFVSAVEVIAILAASFGLLACIFFNKIYIILFKPSRNTIEEVRCSTAAHAFKVAARATLRRSNV
B2: WT human Gαi3 (natural protein)
chain: MGCTLSAEDKAAVERSKMIDRNLREDGEKAAKEVKLLLLGAGESGKSTIVKQMKIIHEDGYSEDECKQYKVVVYSNTIQSIIAIIRAMGRLKIDFGEAARADDARQLFVLAGSAEEGVMTPELAGVIKRLWRDGGVQACFSRSREYQLNDSASYYLNDLDRISQSNYIPTQQDVLRTRVKTTGIVETHFTFKDLYFKMFDVGGQRSERKKWIHCFEGVTAIIFCVALSDYDLVLAEDEEMNRMHESMKLFDSICNNKWFTETSIILFLNKKDLFEEKIKRSPLTICYPEYTGSNTYEEAAAYIQCQFEDLNRRKDTKEIYTHFTCATDTKNVQFVFDAVTDVIIKNNLKECGLY
modifications: lipidated N-terminus

Data set [1] deals with the molecule itself. Nature of the data set: cryo-EM structure.
Data set [2] has as its target B1. The data set is described as follows: cryo-EM structure.

For the molecule B1, the “stoichiometry N” value in data set [1] amounted to 2. Regarding B2, in data set [2], the binding result is on record as “binds”.
